From patent US20250313635A1 (Merck Sharp & Dohme, published 2025)

Columns and labels:
[1] = target: T1, recombinant mouse αvβ1 integrin extracellular domains (mouse, UniProt P43406 1-988; P09055 1-728, Biotinylated on the Avitag (tag not in the letters); interchain disulfide between the coiled-coils (not in the letters).); experiment: ForteBio Octet Red (BLI)
T1 construct: Soluble heterodimer co-expressed in Expi293 cells; also called mαvβ1

[2] = target: T2, recombinant mouse αvβ6 integrin extracellular domains (mouse, UniProt P43406 1-988; Q9Z0T9 1-706, Biotinylated on the Avitag (tag not in the letters); interchain disulfide between the coiled-coils (not in the letters).); experiment: ForteBio Octet Red (BLI)
T2 construct: Soluble heterodimer co-expressed in Expi293 cells; also called mαvβ6

[3] = target: T3, recombinant human αvβ1 integrin extracellular domains (human, UniProt P06756 1-992; P05556 1-728, Secreted glycoprotein heterodimer. It is biotinylated on the omitted Avitag, and an interchain disulfide sits in the omitted coiled-coils.); experiment: ForteBio Octet Red (BLI)
T3 construct: Soluble heterodimer co-expressed in Expi293 cells; also called hαvβ1; not shown: Alpha chain: acidic coiled-coil with cysteine and GG-Avitag; Beta chain: basic coiled-coil with cysteine and GG-Avitag

[4] = target: T4, recombinant human αvβ3 integrin extracellular domains (human, UniProt P06756 1-992; P05106 1-718, Secreted glycoprotein heterodimer. It is biotinylated on the omitted Avitag, and an interchain disulfide sits in the omitted coiled-coils.); experiment: ForteBio Octet Red (BLI)
T4 construct: Soluble heterodimer co-expressed in Expi293 cells; also called hαvβ3; not shown: Alpha chain: acidic coiled-coil with cysteine and GG-Avitag; Beta chain: basic coiled-coil with cysteine and GG-Avitag

[5] = target: T2, recombinant mouse αvβ6 integrin …; experiment: AlphaLISA blocking of mouse LAP-6His binding
Procedure: (§1) Briefly, the testing antibody (8 μL) was added as a 4×(of Final testing concentration) solution in the HEPES buffer described previously into a 384w AlphaPlate™ (Perkin Elmer #6005350). Then the integrin and ligand were added sequentially as 8×(4 μL each). Plates were sealed and incubated at room temperature for two hours. Then 4×acceptor bead solution ([…]) was added, and the plates were resealed and incubated at room temperature (RT) for one hour. Finally, 4×([…]) donor beads solution was added in a darkened room and incubated for 45 minutes at room temperature. Plates were read on the Envision (Perkin Elmer) in AlphaScreen™ mode within three hours of donor bead addition.

[6] = target: T1, recombinant mouse αvβ1 integrin …; experiment: AlphaLISA blocking of mouse fibronectin binding
Procedure: as §1

[7] = target: T5, human αvβ1 integrin on CHOK1 stable cells (human, UniProt P06756 31-1048; P05556 21-798); experiment: cell-based ELISA (CELISA), CHOK1 cells expressing the integrin
T5 construct: whole, on cells; Stably expressed on CHOK1 cells; also called hαvβ1; CHOK1-human αvβ1
Procedure: (§2) Integrin cell-based ELISA (CELISA) assay. Cell binding EC₅₀ data for antibodies were obtained for CHOK1 parental cells and CHOK1 cells expressing human or mouse αvβ1, αvβ6, and αvβ1 integrins by cell-based ELISA. Three days prior to the assay cells were seeded at 10,000 cells per well in 100 μL/well of media in Falcon 96-well Flat-Bottom Tissue Culture Plates (REF 353916), resulting in an even cell monolayer in each well on the day of the assay. On the day of the assay, media was removed from the cells and a fivefold titration of primary antibodies was added at concentrations ranging from 0 to 200 nM in TBSF+MnCl₂ buffer (25 mM Tris, 0.15 M NaCl, 0.1% BSA, 0.5 mM MnCl₂, pH 7.5). Cells incubated with primary antibody solution for 1 hour at room temperature. […] After 30 minutes of incubation at room temperature, secondary antibody was removed, and cells were washed twice with 150 μL/well of 1×DPBS+Tween 20. Then 50 μL/well of TMB substrate (1-Step Ultra TMB-ELISA, Thermo Scientific, #34028) was added, incubated with cells at room temperature, and 50 μL/well of TMB stop solution (Seracare, #KPL 50-85-05) was then added after five minutes. Absorbance was read on a TECAN plate reader at 450 nm, with a 620 nm reference wavelength.

[8] = target: T6, human αvβ6 integrin on CHOK1 stable cells (human, UniProt P06756 31-1048; P18564 22-788); experiment: as above
T6 construct: whole, on cells; Stably expressed on CHOK1 cells; also called hαvβ6; CHOK1-human αvβ6
Procedure: as §2

[9] = target: T7, human α5β1 integrin on CHOK1 stable cells (human, UniProt P08648 42-1049; P05556 21-798); experiment: as above
T7 construct: whole, on cells; Stably expressed on CHOK1 cells; also called hα5β1; CHOK1-human α5β1
Procedure: as §2

[10] = target: T8, mouse αvβ1 integrin on CHOK1 stable cells (mouse, UniProt P43406 31-1044; P09055 21-798); experiment: as above
T8 construct: whole, on cells; Stably expressed on CHOK1 cells; the adhesion assay used the line with the hamster α5 gene knocked out (CHOK1-α5KO-mαvβ1); also called mαvβ1; CHOK1-mouse αvβ1
T8 sequence (P43406 31-1044, chain 1 of 2): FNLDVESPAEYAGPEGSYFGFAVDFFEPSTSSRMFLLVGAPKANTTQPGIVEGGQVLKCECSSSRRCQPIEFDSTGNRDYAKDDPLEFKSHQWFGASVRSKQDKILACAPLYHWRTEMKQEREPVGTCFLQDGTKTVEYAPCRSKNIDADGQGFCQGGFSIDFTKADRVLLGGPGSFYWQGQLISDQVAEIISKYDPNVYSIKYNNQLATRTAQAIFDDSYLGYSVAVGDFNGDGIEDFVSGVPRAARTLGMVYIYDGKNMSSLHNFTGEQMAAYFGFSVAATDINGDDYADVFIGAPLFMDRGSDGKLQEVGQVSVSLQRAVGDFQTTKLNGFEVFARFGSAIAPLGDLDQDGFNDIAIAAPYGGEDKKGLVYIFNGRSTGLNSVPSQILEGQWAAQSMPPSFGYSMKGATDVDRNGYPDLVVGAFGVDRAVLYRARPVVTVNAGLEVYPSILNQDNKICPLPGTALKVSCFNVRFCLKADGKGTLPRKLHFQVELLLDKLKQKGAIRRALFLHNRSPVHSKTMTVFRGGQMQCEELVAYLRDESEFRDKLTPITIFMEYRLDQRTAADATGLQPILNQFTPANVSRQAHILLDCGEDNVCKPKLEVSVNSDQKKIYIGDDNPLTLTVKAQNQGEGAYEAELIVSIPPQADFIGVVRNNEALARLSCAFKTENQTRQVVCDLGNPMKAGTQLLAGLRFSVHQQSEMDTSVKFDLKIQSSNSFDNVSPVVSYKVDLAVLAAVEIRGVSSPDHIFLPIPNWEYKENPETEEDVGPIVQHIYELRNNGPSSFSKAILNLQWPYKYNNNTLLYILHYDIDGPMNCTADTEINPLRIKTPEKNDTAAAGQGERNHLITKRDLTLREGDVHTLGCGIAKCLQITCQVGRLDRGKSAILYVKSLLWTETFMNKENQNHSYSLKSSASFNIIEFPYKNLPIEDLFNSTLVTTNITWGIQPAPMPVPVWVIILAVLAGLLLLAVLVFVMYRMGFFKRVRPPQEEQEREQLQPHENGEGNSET
T8 sequence (P09055 21-798, chain 2 of 2): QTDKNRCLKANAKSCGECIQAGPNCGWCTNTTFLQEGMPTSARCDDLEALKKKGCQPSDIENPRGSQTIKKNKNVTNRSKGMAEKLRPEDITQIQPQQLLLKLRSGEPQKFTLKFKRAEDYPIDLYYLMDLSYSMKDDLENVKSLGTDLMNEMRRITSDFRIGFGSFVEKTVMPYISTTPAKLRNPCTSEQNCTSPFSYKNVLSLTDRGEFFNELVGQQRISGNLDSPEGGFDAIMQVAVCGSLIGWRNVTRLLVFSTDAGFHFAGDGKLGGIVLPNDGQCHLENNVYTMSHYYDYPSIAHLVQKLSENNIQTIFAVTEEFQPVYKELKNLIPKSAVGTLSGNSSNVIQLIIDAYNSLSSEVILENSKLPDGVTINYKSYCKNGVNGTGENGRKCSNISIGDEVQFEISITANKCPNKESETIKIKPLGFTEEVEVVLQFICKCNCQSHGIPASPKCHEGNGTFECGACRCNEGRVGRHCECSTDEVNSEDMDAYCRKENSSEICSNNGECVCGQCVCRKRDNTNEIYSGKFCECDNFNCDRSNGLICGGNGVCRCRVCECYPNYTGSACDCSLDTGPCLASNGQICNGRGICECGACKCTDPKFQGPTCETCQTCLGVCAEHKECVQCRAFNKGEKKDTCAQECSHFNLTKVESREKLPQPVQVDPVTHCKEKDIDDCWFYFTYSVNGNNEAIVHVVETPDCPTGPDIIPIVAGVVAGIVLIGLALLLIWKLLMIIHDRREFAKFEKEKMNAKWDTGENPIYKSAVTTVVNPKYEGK
Procedure: as §2

[11] = target: T9, mouse αvβ6 integrin on CHOK1 stable cells (mouse, UniProt P43406 31-1044; Q9Z0T9 22-787); experiment: as above
T9 construct: whole, on cells; Stably expressed on CHOK1 cells; also called mαvβ6; CHOK1-mouse αvβ6
T9 sequence (P43406 31-1044, chain 1 of 2): as the sequence (P43406 31-1044, chain 1 of 2) above
T9 sequence (Q9Z0T9 22-787, chain 2 of 2): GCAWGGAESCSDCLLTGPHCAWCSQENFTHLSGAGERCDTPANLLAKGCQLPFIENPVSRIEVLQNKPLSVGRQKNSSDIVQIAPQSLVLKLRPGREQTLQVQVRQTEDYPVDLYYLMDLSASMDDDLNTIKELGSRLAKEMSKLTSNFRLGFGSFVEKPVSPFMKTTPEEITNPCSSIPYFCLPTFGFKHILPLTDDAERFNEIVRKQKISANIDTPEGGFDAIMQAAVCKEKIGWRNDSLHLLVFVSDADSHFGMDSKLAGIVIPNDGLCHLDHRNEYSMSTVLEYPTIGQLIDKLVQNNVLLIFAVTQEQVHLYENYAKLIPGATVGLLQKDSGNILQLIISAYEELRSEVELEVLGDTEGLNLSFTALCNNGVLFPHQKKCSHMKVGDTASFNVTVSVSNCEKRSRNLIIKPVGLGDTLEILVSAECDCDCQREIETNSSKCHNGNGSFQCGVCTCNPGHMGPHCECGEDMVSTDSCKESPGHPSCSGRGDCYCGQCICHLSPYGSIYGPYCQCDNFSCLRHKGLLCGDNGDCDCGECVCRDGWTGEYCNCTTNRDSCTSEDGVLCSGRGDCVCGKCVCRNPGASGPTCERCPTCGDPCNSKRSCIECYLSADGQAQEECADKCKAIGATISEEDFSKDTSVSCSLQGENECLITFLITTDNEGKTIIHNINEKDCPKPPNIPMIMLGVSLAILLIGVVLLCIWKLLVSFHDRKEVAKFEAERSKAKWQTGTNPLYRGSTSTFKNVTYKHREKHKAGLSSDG
Procedure: as §2

[12] = target: T10, mouse α5β1 integrin on CHOK1 stable cells (mouse, UniProt P11688 45-1053; P09055 21-798); experiment: as above
T10 construct: whole, on cells; Stably expressed on CHOK1 cells; also called mα5β1; CHOK1-mouse α5β1
T10 sequence (P11688 45-1053, chain 1 of 2): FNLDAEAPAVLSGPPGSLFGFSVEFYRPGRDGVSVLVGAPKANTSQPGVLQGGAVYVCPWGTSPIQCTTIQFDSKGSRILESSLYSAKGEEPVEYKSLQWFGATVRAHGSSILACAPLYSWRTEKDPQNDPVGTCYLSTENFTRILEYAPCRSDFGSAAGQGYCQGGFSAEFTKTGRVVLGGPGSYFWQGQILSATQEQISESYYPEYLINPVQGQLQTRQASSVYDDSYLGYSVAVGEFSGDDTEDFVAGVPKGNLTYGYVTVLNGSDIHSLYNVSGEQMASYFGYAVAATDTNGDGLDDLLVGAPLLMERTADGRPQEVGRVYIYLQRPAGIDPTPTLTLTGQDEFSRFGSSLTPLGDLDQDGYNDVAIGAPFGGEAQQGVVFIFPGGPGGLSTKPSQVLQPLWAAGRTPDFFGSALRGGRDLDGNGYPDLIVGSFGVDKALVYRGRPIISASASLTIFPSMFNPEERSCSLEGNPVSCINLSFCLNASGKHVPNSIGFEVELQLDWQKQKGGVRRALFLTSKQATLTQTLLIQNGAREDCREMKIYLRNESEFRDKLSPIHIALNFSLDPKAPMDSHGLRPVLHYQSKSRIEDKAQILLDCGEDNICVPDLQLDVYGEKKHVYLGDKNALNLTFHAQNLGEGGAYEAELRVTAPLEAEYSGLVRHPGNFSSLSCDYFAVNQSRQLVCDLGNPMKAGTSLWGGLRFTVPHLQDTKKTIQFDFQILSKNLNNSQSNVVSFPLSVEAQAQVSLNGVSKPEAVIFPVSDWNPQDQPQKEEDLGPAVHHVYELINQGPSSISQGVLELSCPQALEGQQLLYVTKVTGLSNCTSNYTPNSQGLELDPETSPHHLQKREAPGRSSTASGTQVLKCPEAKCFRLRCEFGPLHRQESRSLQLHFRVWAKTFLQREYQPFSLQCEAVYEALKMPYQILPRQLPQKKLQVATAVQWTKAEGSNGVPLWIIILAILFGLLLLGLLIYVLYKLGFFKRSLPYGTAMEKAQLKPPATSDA
T10 sequence (P09055 21-798, chain 2 of 2): as the sequence (P09055 21-798, chain 2 of 2) above
Procedure: as §2

B1: Ab-31 (antibody, V domains shown)
VH: EVQLQESGPGLVKPSETLSLTCAVSGYSISSGYYWGWIRQPPGKGLEWIGSIYHSGNTYYNPSLKSRVTISVDTSKNQFSLKLSSVTAADTAVYYCARVPRYSRGDAYYYYGMDVWGQGTTVTVSS
VL: DIQMTQSPSTLSASVGDRVTITCRASQSIGSWLAWYQQKPGKAPKLLIYKASSLESGVPSRFSGSGSGTEFTLTISSLQPDDFATYYCQQSGPYPWTFGGGTKVEIK
Question: B1 was tested. Which Kd [1] did it give?
Answer: 48.4 nM

Question: What about the Kd [2] of the same binder?
Answer: 2.9 nM

Question: And the Kd [3]?
Answer: 14 nM

Question: What about the Kd [4] of the same binder?
Answer: 6.47 nM

Question: And the IC50 [5]?
Answer: 17.7 nM

Question: What about the IC50 [6] of the same binder?
Answer: 6.6 nM

Question: What about the EC50 [7] of the same binder?
Answer: 0.32 nM

Question: And the EC50 [8]?
Answer: 0.483 nM

Question: What about the EC50 [9] of the same binder?
Answer: 1.22 nM

Question: What about the EC50 [10] of the same binder?
Answer: 0.743 nM

Question: And the EC50 [11]?
Answer: 0.64 nM

Question: And the EC50 [12]?
Answer: 1.76 nM

B2: Ab-29 (antibody, V domains shown)
VH: ELQLQESGPGLVKPSETLSLTCTVSGGSISSNSYYWGWIRQPPGKGLEWIGSIYYSGSTYYNPSLKSRVTISVDTSKNQFSLKLSSVTAADTAVYYCARVRRVAGRGDSYYYYYGMDVWGQGTTVTVSS
VL: DIQMTQSPSSVSASVGDRVTITCRASQGISRWLAWYQQKPGKAPKLLIYAASSLQSGVPSRFSGSGSGTDFTLTISSLQPEDFATYYCQQAISHPWTFGGGTKVEIK
Question: What does the source list for B2?
Answer: Kd [1]: 4.21 nM; Kd [2]: 4.11 nM; Kd [3]: 2.7 nM; Kd [4]: 6.58 nM; IC50 [5]: 26.3 nM; IC50 [6]: 3.4 nM; EC50 [7]: 0.198 nM; EC50 [8]: 0.861 nM; EC50 [9]: 0.166 nM; EC50 [10]: 1.09 nM; EC50 [11]: 0.285 nM; EC50 [12]: 0.213 nM

B3: Ab-30 (antibody, V domains shown)
VH: EVQLQESGPGLVKPSETLSLTCAVSGYSISSGYYWGWIRQPPGKGLEWIGSIYHSGNTYYNPSLKSRVTISVDTSKNQFSLKLSSVTAADTAVYYCARVPRYSRGDAYYYYGMDVWGQGTTVTVSS
VL: DIQMTQSPSTLSASVGDRVTITCRASQSISSWLAWYQQKPGKAPKLLIYKASSLESGVPSRFSGSGSGTEFTLTISSLQPDDFATYYCQQVKIYPPYTFGGGTKVEIK
Question: What does the source list for B3?
Answer: Kd [1]: 35 nM; Kd [2]: 3.03 nM; Kd [3]: 6.75 nM; Kd [4]: 5.29 nM; IC50 [5]: 23.2 nM; IC50 [6]: 6.8 nM; EC50 [7]: 0.23 nM; EC50 [8]: 0.323 nM; EC50 [9]: 0.495 nM; EC50 [10]: 0.593 nM; EC50 [11]: 0.335 nM; EC50 [12]: 0.03 nM

B4: Ab-32 (antibody, V domains shown)
VH: EVQLQESGPGLVKPSETLSLTCAVSGYSISSGYYWGWIRQPPGKGLEWIGSIYHSGNTYYNPSLKSRVTISVDTSKNQFSLKLSSVTAADTAVYYCARVPRYSRGDAYYYYGMDVWGQGTTVTVSS
VL: EIVLTQSPGTLSLSPGERATLSCRASQSVRSSYLAWYQQKPGQAPRLLIYGASSRATGIPDRFSGSGSGTDFTLTISRLEPEDFAVYYCQQAGLVFTFGGGTKVEIK
Question: With B4 as the binder, how does the Kd [1] read?
Answer: 25.9 nM

Question: And the Kd [2]?
Answer: 2.59 nM

Question: What about the Kd [3] of the same binder?
Answer: 7.4 nM

Question: And the Kd [4]?
Answer: 6.14 nM

Question: And the IC50 [5]?
Answer: 17.1 nM

Question: And the IC50 [6]?
Answer: 6.7 nM

Question: And the EC50 [7]?
Answer: 0.335 nM

Question: What about the EC50 [8] of the same binder?
Answer: 0.438 nM

Question: And the EC50 [9]?
Answer: 0.597 nM

Question: What about the EC50 [10] of the same binder?
Answer: 0.609 nM

Question: And the EC50 [11]?
Answer: 0.508 nM

Question: And the EC50 [12]?
Answer: 0.131 nM

B5: Ab-33 (antibody, V domains shown)
VH: EVQLVQSGAEVKKPGSSVKVSCKASGGTFSNYAISWVRQAPGQGLEWMGGIIPIFGTANYAQKFQGRVTITADESTSTAYMELSSLRSEDTAVYYCARAPRSARGDMYYYYYGMDVWGQGTTVTVSS
VL: DIQMTQSPSTLSASVGDRVTITCRASQSIGSWLAWYQQKPGKAPKLLIYKASSLESGVPSRFSGSGSGTEFTLTISSLQPDDFATYYCQQYGRYPWTFGGGTKVEIK
Question: What does the source list for B5?
Answer: Kd [1]: 37.7 nM; Kd [2]: 2.45 nM; Kd [3]: 12.7 nM; Kd [4]: 5.07 nM; IC50 [5]: 6.6 nM; IC50 [6]: 4.5 nM; EC50 [7]: 0.702 nM; EC50 [8]: 0.417 nM; EC50 [10]: 2.84 nM; EC50 [11]: 2.84 nM
